# Data taken from article doi:10.64898/2025.12.08.693081.
# Where two headings read alike, the source gives them in different places.
# Experiments:
# Assay in all cases: cryo-EM structure
# [1] = biological target: Hendravirus alpha2 -F protein (Hendra virus) (UniProt O89342)
# [2] = biological target: Angavokeley (AngV) fusion (F) protein ectodomain (Angavokeley virus (AngV))
# [3] = biological target: Angavokeley (AngV) fusion (F) protein ectodomain (Angavokeley virus (AngV)); remark: listed apart in the source
Substance,stoichiometry N [1],stoichiometry N [2],stoichiometry N [3]
Hendravirus alpha2 -F protein (from UniProt O89342 27-494) (domain or fragment),6,,
Angavokeley (AngV) fusion (F) protein ectodomain (domain or fragment),,6,3
